Measured values taken from paper PMC11203950, “Folding and Binding Kinetics of the Tandem of SH2 Domains from SHP2” (International Journal of Molecular Sciences, 2024).

How the values were obtained:
[1] = biological target: T1, NSH2 domain (Homo sapiens, UniProt Q06124); assay: Kinetic binding (stopped-flow, FRET Trp-dansyl) to the isolated NSH2 domain
T1 construct: The constructs encoding the isolated NSH2 domain, the isolated CSH2 domain, and the NSH2-CSH2 tandem were subcloned in a pET28b+ plasmid vector; made in house; host or cells: Escherichia coli BL21 (DE3)
T1 sequence (Q06124 6-102 limits assumed): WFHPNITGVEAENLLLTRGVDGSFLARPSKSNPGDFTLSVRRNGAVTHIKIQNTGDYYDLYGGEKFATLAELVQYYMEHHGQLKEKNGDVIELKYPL
From the text: In analogy to our previous works, we performed kinetic binding experiments by challenging the NSH2-CSH2 tandem with peptides mimicking different portions of Gab2, namely Gab2_608–620 (binding the NSH2 domain) and Gab2_637–649 (binding the CSH2 domain). From now on, the two peptides will be named, respectively, Gab2N and Gab2C, while the peptide mimicking the entire segment of Gab2 binding both SH2 domains, and corresponding to Gab2_608–649, will be named Gab2T. To compare data with our previous works, the experiments were performed in buffer Hepes 50 mM, NaCl 300 mM, 2 mM DTT, pH 7.2, at 10 °C, by following the FRET signal occurring through the excitation of the tryptophan residues in the NSH2-CSH2 tandem with light at 280 nm and following the change in fluorescence of the dansyl group covalently attached to the N-terminus of the peptides. […]
Kinetic experiments of binding between the NSH2, CSH2 and NSH2-CSH2 tandem and the peptides mimicking different portions of Gab2 were measured by monitoring FRET between the tryptophan, acting as a donor, and a dansyl group covalently attached to the N-terminus of the peptides, acting as acceptor. […] The excitation wavelength used was 280 nm while the fluorescence emission was collected using a 475 nm cutoff glass filter. […]

[2] = biological target: T2, NSH2-CSH2 tandem of SHP2 (Homo sapiens, UniProt Q06124); assay: Kinetic displacement of peptide from NSH2-CSH2 tandem by Gab2T; type: binding; conditions: for rate constant in displacement by Gab2T: pH 7.2, 10 °C
T2 construct: The constructs encoding the isolated NSH2 domain, the isolated CSH2 domain, and the NSH2-CSH2 tandem were subcloned in a pET28b+ plasmid vector; made in house; host or cells: Escherichia coli BL21 (DE3)
T2 sequence (Q06124 1-220 limits assumed): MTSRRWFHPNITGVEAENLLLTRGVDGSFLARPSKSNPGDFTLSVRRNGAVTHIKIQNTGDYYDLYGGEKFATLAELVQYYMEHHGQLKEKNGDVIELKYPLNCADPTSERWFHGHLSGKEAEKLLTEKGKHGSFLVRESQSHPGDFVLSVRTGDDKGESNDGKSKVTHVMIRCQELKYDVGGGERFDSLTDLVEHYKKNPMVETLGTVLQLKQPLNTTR
From the text: (§1) In analogy to our previous works, we performed kinetic binding experiments by challenging the NSH2-CSH2 tandem with peptides mimicking different portions of Gab2, namely Gab2_608–620 (binding the NSH2 domain) and Gab2_637–649 (binding the CSH2 domain). From now on, the two peptides will be named, respectively, Gab2N and Gab2C, while the peptide mimicking the entire segment of Gab2 binding both SH2 domains, and corresponding to Gab2_608–649, will be named Gab2T. To compare data with our previous works, the experiments were performed in buffer Hepes 50 mM, NaCl 300 mM, 2 mM DTT, pH 7.2, at 10 °C, by following the FRET signal occurring through the excitation of the tryptophan residues in the NSH2-CSH2 tandem with light at 280 nm and following the change in fluorescence of the dansyl group covalently attached to the N-terminus of the peptides.
We also resorted to monitoring the binding reaction between the NSH2-CSH2 tandem with the Gab2T peptide. […] To obtain information about the ability of the NSH2-CSH2 to bind Gab2T, we performed kinetic displacement experiments in order to test the ability of Gab2T to displace Gab2N and Gab2C. […] These two values are in great agreement with what was previously calculated in binding experiments of the isolated domains.
Kinetic experiments of binding between the NSH2, CSH2 and NSH2-CSH2 tandem and the peptides mimicking different portions of Gab2 were measured by monitoring FRET between the tryptophan, acting as a donor, and a dansyl group covalently attached to the N-terminus of the peptides, acting as acceptor. […] The excitation wavelength used was 280 nm while the fluorescence emission was collected using a 475 nm cutoff glass filter. […] The observed rate constants were calculated from the average of 3–6 single traces and by fitting the time-course for binding using a single exponential equation y=Aexp−kobs t+c where A is the amplitude of the kinetic trace, kobs the observed rate constant and c the final fluorescence value of the trace. […]

[3] = biological target: T2, NSH2-CSH2 tandem of SHP2; assay: Kinetic binding (stopped-flow, FRET Trp-dansyl) to the NSH2-CSH2 tandem; conditions: for kon (microscopic association rate constant): Hepes 50 mM, NaCl 300 mM, 2 mM DTT
From the text: as §1
First, to test whether the presence of the contiguous CSH2 affected the affinity of the NSH2 domain for Gab2, we mixed a constant concentration of dansylated Gab2N (1 µM) vs. increasing concentrations of NSH2-CSH2 (ranging from 2 µM to 9 µM). The obtained observed rate constant (kobs) as a function of the concentration of the NSH2-CSH2 tandem was fitted with a linear equation, the slope corresponding to the microscopic association rate constant (kon) and the intercept with the y-axis to the microscopic dissociation rate constant (koff). To directly measure the koff, we performed displacement experiments by rapidly mixing a preincubated complex of NSH2-CSH2 with dansylated Gab2N (both at a constant concentration of 2 µM) versus a high excess of non-dansylated Gab2N (50 µM).
We also resorted to monitoring the binding reaction between the NSH2-CSH2 tandem with the Gab2T peptide. […] To obtain information about the ability of the NSH2-CSH2 to bind Gab2T, we performed kinetic displacement experiments in order to test the ability of Gab2T to displace Gab2N and Gab2C. Thus, in two separate experiments, we rapidly mixed a preincubated complex of NSH2-CSH2 with Gab2N (both at a constant concentration of 2 µM) versus an excess of Gab2T (50 µM) and a preincubated complex of NSH2-CSH2 with Gab2C (both at constant concentrations of 2 µM and 10 µM, respectively) versus an excess of Gab2T (50 µM) (Figure 5C). Importantly, in the two experiments, we could calculate two different rate constants, respectively, of 1.2 ± 0.3 s^−1 in the case of Gab2N, and 82 ± 1 s^−1 in the case of Gab2C. These two values are in great agreement with what was previously calculated in binding experiments of the isolated domains.
Kinetic experiments of binding between the NSH2, CSH2 and NSH2-CSH2 tandem and the peptides mimicking different portions of Gab2 were measured by monitoring FRET between the tryptophan, acting as a donor, and a dansyl group covalently attached to the N-terminus of the peptides, acting as acceptor. The experiments were performed on a single-mixing SX-18 stopped-flow instrument (Applied Photophysics, Leatherhead, UK) recording the change of dansyl emission. The excitation wavelength used was 280 nm while the fluorescence emission was collected using a 475 nm cutoff glass filter. The binding experiments were carried out at 25 °C mixing a constant concentration of dansylated peptide (1 μM) versus increasing concentrations of NSH2, CSH2 and NSH2-CSH2 (ranging from 2 to 10 μM). The buffer used was Hepes 50 mM, NaCl 300 mM, pH 7.2. The observed rate constants were calculated from the average of 3–6 single traces and by fitting the time-course for binding using a single exponential equation y=Aexp−kobs t+c where A is the amplitude of the kinetic trace, kobs the observed rate constant and c the final fluorescence value of the trace. The dependences of kobs as a function of ligand concentrations were fitted with a linear equation kobs=kon ligand+koff where kon is the microscopic association rate constant, and koff the microscopic dissociation rate constant.

Gab2C: peptide mimicking Gab2_637–649 (binding the CSH2 domain)
binding to isolated NSH2 domain, kinetic traces ([1]; NSH2 domain mixed with different concentrations of Gab2C peptide): no kinetic traces could be recorded | rate constant in displacement by Gab2T ([2]; preincubated NSH2-CSH2 (2 µM) with Gab2C (10 µM) vs excess Gab2T (50 µM)): 82 ± 1 s⁻¹

Gab2N: peptide mimicking Gab2_608–620 (binding the NSH2 domain); used dansylated at the N-terminus and non-dansylated
koff (microscopic dissociation rate constant) ([1]; isolated NSH2 domain, pH 7.2): 1.8 ± 0.1 s⁻¹ | kon (microscopic association rate constant) ([3]; dansylated Gab2N 1 µM vs NSH2-CSH2 2 to 9 µM, no Gab2C, pH 7.2, 10 °C, excitation 280 nm, average of 3–6 traces): 3.73e+07 ± 800000 M⁻¹ s⁻¹ | kon (microscopic association rate constant) ([3]; dansylated Gab2N vs NSH2-CSH2, in the presence of 10 µM Gab2C, pH 7.2, 10 °C): 1.64e+07 ± 200000 M⁻¹ s⁻¹ | kon (microscopic association rate constant) ([3]; dansylated Gab2N vs NSH2-CSH2, in the presence of 20 µM Gab2C, pH 7.2, 10 °C): 1.44e+07 ± 200000 M⁻¹ s⁻¹ | koff (microscopic dissociation rate constant) ([3]; displacement of preincubated NSH2-CSH2/dansylated Gab2N (both 2 µM) by excess non-dansylated Gab2N (50 µM), pH 7.2, 10 °C): 1.8 ± 0.1 s⁻¹ | KD, calculated as koff/kon, tandem compared to isolated NSH2 domain ([3]; no Gab2C, pH 7.2): lower KD | rate constant in displacement by Gab2T ([2]; preincubated NSH2-CSH2 with Gab2N (both 2 µM) vs excess Gab2T (50 µM)): 1.2 ± 0.3 s⁻¹

Gab2T: peptide mimicking the entire segment of Gab2 binding both SH2 domains, corresponding to Gab2_608–649 (STGSVDYLALDFQPSSPSPHRKPSTSSVTSDEKVDYVQVDKE; UniProt Q9UQC2 608-649, looked up, fragment)
kinetic binding to NSH2-CSH2, fluorescence change ([3]; Gab2T not available in dansylated form): did not return any change in fluorescence | displacement of Gab2N and Gab2C from NSH2-CSH2 ([2]; Gab2T 50 µM, pH 7.2): able to displace both peptides
